Measurements published in patent US20240409645A1.
One block for each binder: values may come before it.

Legend:
[1] = target: cynomolgus monkey IL-2Rγ/CD132 subunit (cynomolgus monkey); experiment: ELISA, monovalent VHH-hFc
[2] = target: T1, human common cytokine receptor γ-chain (γc; IL-2Rγ; CD132), recombinant protein (human) (UniProt P31785); experiment: ELISA, monovalent VHH-hFc
T1 sequence: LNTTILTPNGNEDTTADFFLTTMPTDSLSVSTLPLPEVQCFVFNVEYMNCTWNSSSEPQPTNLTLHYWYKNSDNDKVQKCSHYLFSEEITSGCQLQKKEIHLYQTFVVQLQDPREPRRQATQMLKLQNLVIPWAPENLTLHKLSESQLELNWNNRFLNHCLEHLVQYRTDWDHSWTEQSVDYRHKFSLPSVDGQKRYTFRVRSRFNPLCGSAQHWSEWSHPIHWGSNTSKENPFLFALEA

[3] = target: cynomolgus monkey IL-2Rγ/CD132 subunit (cynomolgus monkey); experiment: ELISA, monovalent; EC50 cyno vs human subunit
mouse IL-2Rβ (mouse) = target: T2, mouse IL-2Rβ (mouse) (UniProt P16297); experiment: P.E. binding ELISA
T2 sequence (looked up): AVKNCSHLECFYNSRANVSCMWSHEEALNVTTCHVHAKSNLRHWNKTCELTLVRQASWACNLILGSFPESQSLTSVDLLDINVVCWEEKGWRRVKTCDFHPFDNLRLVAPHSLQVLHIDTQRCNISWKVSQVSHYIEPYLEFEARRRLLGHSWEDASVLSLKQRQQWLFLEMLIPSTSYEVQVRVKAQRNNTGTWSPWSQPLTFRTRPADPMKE

[4] = target: T3, cynomolgus monkey IL-2Rβ/CD122 subunit (cynomolgus monkey) (UniProt Q38J85); experiment: ELISA, monovalent VHH-hFc
T3 sequence (looked up): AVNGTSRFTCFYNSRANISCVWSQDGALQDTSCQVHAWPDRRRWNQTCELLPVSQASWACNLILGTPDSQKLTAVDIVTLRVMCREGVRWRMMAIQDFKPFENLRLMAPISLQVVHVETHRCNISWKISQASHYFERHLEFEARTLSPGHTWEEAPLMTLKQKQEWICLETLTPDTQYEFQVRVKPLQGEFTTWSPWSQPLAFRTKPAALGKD

[5] = target: T4, human interleukin-2 receptor β-chain (IL-2Rβ; CD122), recombinant protein (human) (UniProt P14784); experiment: ELISA, monovalent VHH-hFc
T4 sequence: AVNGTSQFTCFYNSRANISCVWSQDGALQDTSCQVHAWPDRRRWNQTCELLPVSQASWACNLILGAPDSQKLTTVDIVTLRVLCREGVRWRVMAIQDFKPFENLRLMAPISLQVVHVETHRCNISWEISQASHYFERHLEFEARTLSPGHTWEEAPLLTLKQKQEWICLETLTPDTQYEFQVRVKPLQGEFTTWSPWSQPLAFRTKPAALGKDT

[6] = target: T3, cynomolgus monkey IL-2Rβ/CD122 subunit (cynomolgus monkey); experiment: ELISA, monovalent; EC50 cyno vs human subunit
mouse IL-2Rα (mouse) = target: T5, mouse IL-2Rα (mouse) (UniProt P01590); experiment: P.E. binding ELISA
T5 sequence (looked up): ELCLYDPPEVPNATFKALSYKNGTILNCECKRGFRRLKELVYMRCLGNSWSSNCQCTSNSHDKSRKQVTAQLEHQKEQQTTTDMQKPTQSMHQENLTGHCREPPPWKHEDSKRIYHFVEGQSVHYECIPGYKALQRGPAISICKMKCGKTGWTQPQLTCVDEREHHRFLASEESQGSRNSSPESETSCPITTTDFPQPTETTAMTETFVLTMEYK

cynomolgus monkey IL-2Rγ/CD132 subunit (cynomolgus monkey), sequence (chain, as listed by the source): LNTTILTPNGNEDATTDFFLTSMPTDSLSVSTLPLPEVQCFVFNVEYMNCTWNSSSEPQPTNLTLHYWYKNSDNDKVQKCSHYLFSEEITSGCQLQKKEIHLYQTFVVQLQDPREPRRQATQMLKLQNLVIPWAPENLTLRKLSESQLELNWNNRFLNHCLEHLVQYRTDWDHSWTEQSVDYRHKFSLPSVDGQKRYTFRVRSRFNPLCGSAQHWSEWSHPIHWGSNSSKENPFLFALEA

B1: 28-MP04D02 VHH-hFc, monospecific monovalent (Fc fusion, part only; not given: Both Fc arms and linker, not shown: another chain or arm of the molecule; a dimerising Fc or GST; large carriers; small tags and cut ends)
VHH: QVQLVESGGGLVQAGGSLRLSCAASGRTLSRYAMGWFRQAPGKEREFVTANSWGGDTYYADSVQGRFTFSRDNAKNTVYLQMNSLQPEDTAVYYCAAAPTSFATTAYSGSNSYAYWGQGTQVTVSS
EC50 [1]: 0.723 nM
EC50 [2]: 0.62 nM
Fold change [3]: 1.2 fold

B2: 36-MP07F02 VHH-hFc, monospecific monovalent (Fc fusion, part only; not given: Both Fc arms and linker, not shown: another chain or arm of the molecule; a dimerising Fc or GST; small tags and cut ends)
VHH: QVQLVESGGGLVQAGGSLRLSCAASGRTLSRYAMGWFRQAPGSEREFVAASSWGGDTFYADSVEGRFTFSRDNAKNAVYLQMNSLQPEDTAAYYCAAAPTSFPTTAYSSSNSYAYWGQGTQVTVSS
EC50 [1]: 0.222 nM
EC50 [2]: 0.145 nM

B3: 18-MP03C03 VHH (periplasmic extract) (VHH)
VHH: QVQLVESGGGLVQPGGSLRLSCAISGGTLDSYGIGWVRQAPGKQREGVSCMSRSDDRTYYADSVKGRFTISKDSAKNTVYLQMTSLKPEDTAVYYCAAVDAYGCSLVQPTTYDFWGLGTQVTVSS
OD450 nm (mouse IL-2Rβ (mouse)): 0.048 OD450 nm

B4: 19-MP03F08 VHH-hFc, monospecific monovalent (Fc fusion, part only; not given: Both Fc arms and linker, not shown: another chain or arm of the molecule; a dimerising Fc or GST; large carriers; small tags and cut ends)
VHH: EVQLVESGGGLVQTGGSLRLSCAASGGTFSRDAMAWFRQVPGKEREFVALISWSGATTNYADSVKGRFAISRDNGKNTVYLQMNRLKPADTAIYYCAADRRPMGSRSYFEPTEYDDWGQGTQVTVSS
EC50 [4]: 0.953 nM
EC50 [5]: 0.67 nM
Fold change [6]: 1.4 fold

B5: 24-MP06E05 VHH-hFc, monospecific monovalent (Fc fusion, part only; not given: Both Fc arms and linker, not shown: another chain or arm of the molecule; a dimerising Fc or GST; large carriers; small tags and cut ends)
VHH: QVQLVESGGELVQGGASLRLSCAASGRTFSNANMAWFRQAPEKEREFVALITWSSGSTLYADSVKGRFTISRDNARKMVYLQMNSLKPEDTAVYYCAADGPPYSGTYYRYDTYDYWGQGTQVTVSS
EC50 [4]: 0.657 nM
EC50 [5]: 0.206 nM
Fold change [6]: 3.2 fold

B6: 24-MP06E05 VHH (periplasmic extract) (VHH)
VHH: QVQLVESGGELVQGGASLRLSCAASGRTFSNANMAWFRQAPEKEREFVALITWSSGSTLYADSVKGRFTISRDNARKMVYLQMNSLKPEDTAVYYCAADGPPYSGTYYRYDTYDYWGQGTQVTVSS
OD450 nm (mouse IL-2Rβ (mouse)): 0.046 OD450 nm

B8: 22-MP03F12 VHH-hFc, monospecific monovalent (Fc fusion, part only; not given: Both Fc arms and linker, not shown: another chain or arm of the molecule; a dimerising Fc or GST; large carriers; small tags and cut ends)
VHH: EVQLVESGGGLVQAGGSLRLSCAASGSIFSINAMAWFRQVPGMERELVAAISRDGGASVYRDSVKGRFTISRDNSKNTVYLQMNTLKPEDTAIYVCAATRAIGWTARWITTDFDFWGQGTQVTVSS
EC50 [4]: 0.156 nM
EC50 [5]: 0.092 nM
Fold change [6]: 1.7 fold

B10: 23-MP06F03 VHH-hFc, monospecific monovalent (Fc fusion, part only; not given: Both Fc arms and linker, not shown: another chain or arm of the molecule; a dimerising Fc or GST; large carriers; small tags and cut ends)
VHH: QVQLVESGGGLVQAGGSLRLSCAVSGDVFVRYTMAWFRQAPGKEREFVASVTDSGRTTDYVHSVKGRFTVSRDNAKNTVYLQMNNLKPEDTAVYYCAANTDYFQIKSLDANTWGQGTQVTVSS
EC50 [4]: 0.26 nM
EC50 [5]: 0.174 nM
Fold change [6]: 1.5 fold

B13: 8-MP01C12 VHH (periplasmic extract) (VHH)
VHH: QVQLVESGGGLVQPGGSLRLSCATSGFTFSNNFMSWVRQAPGKGLEFVSTISYGGESTTYAEAVKGRFTISRDNAKNTLYLQMNNLKPEDTAIYYCAKATSYTSIRGAPRGQGTQVTVSS
OD450 nm (mouse IL-2Rα (mouse)): 0.045 OD450 nm

B17: 5-MP01F05 VHH (periplasmic extract) (VHH)
VHH: EVQLVESGGGLVQAGGSLRLSCAASIRAFTTWSMAWFRQAPGKEREYVARINVSGSVTYYADFVKGRFTISRDNAKKTMYLEMNNLKPEDTALYYCAADRTGVGTNDYNYWGQGTQVTVSS
OD450 nm (mouse IL-2Rα (mouse)): 0.046 OD450 nm

B18: 20-MP03F10 VHH (periplasmic extract) (VHH)
VHH: EVQLVESGGGLVQAGGSLRLSCAASGRDFSSYAMGWFRQAPGKEREFVVAITWTKRSTDFPDSVKGRFTISRDNAKNTVYLDMNSLKPEDTAVYYCASARGLPVTPLGDIIYWGEGTLVTVSS
OD450 nm (mouse IL-2Rβ (mouse)): 0.048 OD450 nm

B20: 16-MP02B08 VHH-hFc, monospecific monovalent (Fc fusion, part only; not given: Both Fc arms and linker, not shown: another chain or arm of the molecule; a dimerising Fc or GST; large carriers; small tags and cut ends)
VHH: EVQLVESGGGLVQAGGSLRLSCAASGRAIENYPVGWFRQAPGKEREFVAAITWISGSTLYADSVKGRFTISRDNAKNTVYLQMSSLKPEDTALYYCAAALKTITRGQNDYSYWGQGTQVTVSS
EC50 [4]: 0.28 nM
EC50 [5]: 0.215 nM
Fold change [6]: 1.3 fold

B21: 16-MP02B08 VHH (periplasmic extract) (VHH)
VHH: EVQLVESGGGLVQAGGSLRLSCAASGRAIENYPVGWFRQAPGKEREFVAAITWISGSTLYADSVKGRFTISRDNAKNTVYLQMSSLKPEDTALYYCAAALKTITRGQNDYSYWGQGTQVTVSS
OD450 nm (mouse IL-2Rβ (mouse)): 0.048 OD450 nm

B22: 15-MP02E06 VHH (periplasmic extract) (VHH)
VHH: QVQLVESGGGSVQPGGSLRLSCAASGFTFSNYAMSWVRQAPGKGLEWVASITGFGRGTDYADSVKGRFTISRDNAEDTLYLQMNSLKPEDTAVYYCAKYSSSTYYPPTPARGRDYRGQGTQVTVSS
OD450 nm (mouse IL-2Rβ (mouse)): 0.048 OD450 nm

Continued, values first:

EC50 [4]: 0.495 nM
EC50 [5]: 0.148 nM
Fold change [6]: 3.3 fold
B7: 17-MP02C09 VHH-hFc, monospecific monovalent (Fc fusion, part only; not given: Both Fc arms and linker, not shown: another chain or arm of the molecule; a dimerising Fc or GST; large carriers; small tags and cut ends)
VHH: QVQLQESGGGLVQAGGSLRLSCVASGSVSSINGMAWYRQGADNQRVLVAAISRVGNTAYGDSVKGRFTISRQNARNTVYLQMNSLKPEDTAVYYCNADSWGGDDYWGQGTQVTVSS

OD450 nm (mouse IL-2Rβ (mouse)): 0.048 OD450 nm
B9: 22-MP03F12 VHH (periplasmic extract) (VHH)
VHH: EVQLVESGGGLVQAGGSLRLSCAASGSIFSINAMAWFRQVPGMERELVAAISRDGGASVYRDSVKGRFTISRDNSKNTVYLQMNTLKPEDTAIYVCAATRAIGWTARWITTDFDFWGQGTQVTVSS

EC50 [4]: 0.102 nM
EC50 [5]: 0.086 nM
Fold change [6]: 1.2 fold
B11: 26-MP06A07 VHH-hFc, monospecific monovalent (Fc fusion, part only; not given: Both Fc arms and linker, not shown: another chain or arm of the molecule; a dimerising Fc or GST; large carriers; small tags and cut ends)
VHH: QVQLQESGGGLVQAGGSLRLSCAASGDVFVRYTMAWFRQAPGKEREFVASVTDSGRTTEYVDSVKGRFTVSRDNAKNTAYLQMNNLKPEDTAIYYCAANTDYFQIRSLDLNTWGQGTQVTVSS

OD450 nm (mouse IL-2Rα (mouse)): 0.046 OD450 nm
B12: 2-MP01A02 VHH (periplasmic extract) (VHH)
VHH: QVQLVESGGGLVQPGGSLRLSCATSGFTFRNNFMSWVRQAPGKGLEWVSTISYGGESTTYAESVKGRFTISRDNAKNTLYLQMNNLKPEDTAVYYCAKATSYDSIRSGSRGQGTQVTVSS

OD450 nm (mouse IL-2Rα (mouse)): 0.046 OD450 nm
B14: 6-MP01G05 VHH (periplasmic extract) (VHH)
VHH: QVQLQESGGGLVQAGGSLRLSCAASGRTFSSYAMGWFRQAPGKEREFVAVISWNVDNTEYTDSVKGRFTISRDNDKNMVYLQMNSLKPEDTAVYYCAADSIPLSSDMSPTATEYGYWGQGTQVTVSS

EC50 [1]: 0.153 nM
EC50 [2]: 0.155 nM
Fold change [3]: 1 fold
B15: 27-MP04G01 VHH-hFc, monospecific monovalent (Fc fusion, part only; not given: Both Fc arms and linker, not shown: another chain or arm of the molecule; a dimerising Fc or GST; large carriers; small tags and cut ends)
VHH: QVQLVESGGGLVQAGGSLTLSCAAPGRTFGTDVVGWFRQAPGKEREFVASISRSGDGIYYDDSVKGRFTISRNNAWNTVNLQMNSLKVEDTAVYYCAAGDGWSTYDYWGQGTQVTVSS

OD450 nm (mouse IL-2Rα (mouse)): 0.048 OD450 nm
B16: 1-MP01H01 VHH (periplasmic extract) (VHH)
VHH: EVQLVESGGGLVQAGGSLRLSCAASGRTFRTHNMGWFRRAPGKEREFVAAISWNVDNTLYADSVKGRFTISRDNGRNMVYLQMNSLKPEDTAVYYCAADNIPLSSDVAATATEYDYWGQGTQVTVSS

OD450 nm (mouse IL-2Rα (mouse)): 0.046 OD450 nm
B19: 3-MP01E03 VHH (periplasmic extract) (VHH)
VHH: QVQLVESGGGLVQAGGSLRLSCTASGRTLSSYSMAWFRQAADKGREFVTAISSSGVVTHVLDSVKGRFTISRDNAKNTVYLQMNSLQPEDTALYFCAGTASSYSTYEANYNYWGQGTLVTVSS
